Source: a protein production outcome set (Wang et al. 2014)

Assay: label from the status in PepcDB records
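Note: failed if final PepcDB status was selected cloned or expressed and not failed if soluble or beyond.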

Row | Sequence | protein production
1 | MSNSRELGDLLEQIRLGEDSQLEFKRVVFENDKIKGPNGDSLSQEIAAFANAIGGRLILGVDDKTRDVVGIPLDRLDAVSIWLENCVHDRIKPEPTIYLRRRLVPDRSGTEHAVLVIDIPRSLYVHLAPGGYFRRQGSSKHELPPNELLRLMQSRQRAGTLGFDEMPVLGCTQANFDAALYGRFLGTTDEPEELRLRKLKLLVPGEPGEEWASVAGVLMATATPSDWLPQAYVQCVHYAGTEKTAQEQLDAQDIQGPLDQQIRQAAAFVLRGMRTAARKNLGRIDVPQFDPEAVFEAIANAGAHRDYSISGAPVQVHLFTDRLEITSPGALPNSQSVESIALRTATRNELLTNLLARCPVEMEGVGRSRVMEKRGEGVPQILNRSERLSGHRPKFELLGENALRVTLYAADPETSPLLNEAGRGSVGLPHAGFARDDG | failed
2 | MVLSEIFRGNNEVREAARAGVQIDTVSVASASDAASAADGSGKITGAIRPSAVAGSFYPADRTALKQLINQQLDYGRKLLQQLEPTLPAGVPRAVIVPHAGYIYSGTAAALAYALLERGRGSVTRAVIVGPTHRVAVRGVACSTAAAFETPLGTVPVDIAAERKALGLSVNEPLRSGTHARPGAPAPAMIVNAPTHAQEHAVEVQIPFLQTVLGPDLTIVPLNAGDATPQEVGDVLRALWGGPETVIVISSDLSHYHPHEVARALDDQTIADIAALHLPIHPRRACGAYPINGLLDVLKGRKDMRLFELGCSTSGDDGVVALAGQPRPAMRDADEPVVGYVSFAAWESKPEADALAGADDLGTSGTPSHGEVLLKLARAAIRERLHIEHPTAADSTASILAANPWLNEPGACFVTLTEGGRLRGCIGSLVAHRSLGKDVAEHAVDAATRDPRFTPVTAAEYPLLNVEVSVLGEPEPITVNSCDADSRGTGSKTATLASLQSGPQTDAVKRDGSNVERPVRSRTELEEVLRPGKDGLILADRRGRSATFLPQVWDELPDPHDFVAHLLAKAGIRPSYDWTDSEIDCQRYEVTAYAEH | failed
3 | MSELRILRAVDYPRMPWKNGAGSTEEIARDGGDGLDGFGWRLSIADVGESGGFSGFAGYQRIISVLEGGGMRLRVDGAESAPLRARQAFAFSGDSEVHCTLLDGAIRDFNLIYAPRRHRARLQWLRVEGELDWHGTASTLLLFAQQDGVAISLQGQPRGQLAAHDCLCAEGLQGLQHWRLTAHEPAWVCAVELDSL | not failed
4 | MKVIETKYNGKLEVAEDRLIAFDQGIPAFEDEKEFVLLPFAAGTPYYTLQSTKTVDLAFIIVNPFSFFPEYRVKLPEATIVQLNITNENDVAIFSLLTVKEPFSETTVNLQAPIVINANKQMGKQLVLGDTAYDRKQPLFQKELVLAKEAK | not failed
5 | GSHMKEDQVVAEEPGFQDEEESLFQDIDLLQKHGINVADIKKLKSVGICTIKGIQMTTRRALCNVKGLSEAKVDKIKEAANKLIEPGFLTAFEYSEKRKMVFHITTGSQEFDKLLGGGIESMAITEAFGEFRTGKTQLSHTLCVTAQLPGAGGYPGGKIIFIDTENTFRPDRLRDIADRFNVDHDAVLDNVLYARAYTSEHQMELLDYVAAKFHEEAGIFKLLIIDSIMALFRVDFSGRGELAERQQKLAQMLSRLQKISEEYNVAVFVTNQMTADPGATMTFQADPKKPIGGHILAHASTTRISLRKGRGELRIAKIYDSPEMPENEATFAITAGGIGDAKE | not failed
6 | MIKSILDYLLTLHPVLLGLLGSTFTWFTTAFGAAAVFFFRKVDNKIMDAMLGFSAGIMIAASFFSLIQPAIERAEELGYITWVPAVFGFLVGAFFIYIVDVFVPDLDKLTFIDEDLTKHGKKDFLLFTAVTLHNFPEGLAVGVAFGALASNPDIQTLVGAMLLTLGIGIQNIPEGAAISLPLRRGNVALAKCFNYGQMSGLVEIVGGLMGAYAVYSFTRILPFALAFSAGAMIYVSIEQLIPEAKRKDIDNKVPSIFGVIGFTLMMFLDVSLG | failed
7 | MEINRQIIHPLIFVAFFVTITGSVAGAAAAPEVNMELVGHFGGTTDAVDVAGNYAYVGQGQDFLILDITNPSSPVLVSKIMTEGFVRDIKVSRNYAYVADDDNGLVIVDISNPSSPTLKGSYNIPGYTYCITVSGNYAYVADNDGLVIVDISNPSDPILKGRYAGPTGDVAVYGNYAYVADWGNGLMIVDISNPSSPVLKGSYDTAGDIYGVSISGNYAYVADGDTGLVIVDISNPSSPTLKGNYNTAGIACDVSVLGNYAYVADNDNGLVIVDISDPSSPVLKGNGSTTGYAHGIEVSGNYAYVANSNTGLVIVDISNPSSPTLKGSCDTIVRAKSIAVSGNYAYIADWDNGLVIVDISNPSSPFLKGSCDTPRSAQGVAVSGNYAYVADDDGLVIVDISNPSFPILNKSYNTGGWAQGITVSGNYAYVIDMANGIFIVDISNPSSPILEGMYDTSPIIIENYDYTGSIWSVSVSGNYAYVADEGNGLLIVDISNPSSPILKGSYDTAGLAYDVAVSGNYAYVADSKNGLAIIDISNPSSPILVGNYNTSGYAECVSISGNYAYVAVDDSLVVVDISNPSSPILKGLYAGSAGDIAVSGNYVYASEGVNGLVILKANPESAFTVADFSSNITSGYAPLSIQFNDHSQNATSWNWDFGDGYNSTNQNPIHTYSSAGTYTVNLTVINENRTASKVAKIFVLNTSSSTEENSSGSEETGGDGVILTKDTGAPTKERKITPGFEIVYWVVSLLVAFWIKGSNKK | failed
8 | MKTKTLNTNRFIKLSLLSAIAVILMYIDFPVIPIFPWLKIDLSDVPALMGAFAFGPLAGVIIELMKNLLILIVKGTGTGFVGELANFLVGVALVWPAALVYKKNKTKKTAILGMVLGVLCIEVVGILANVYLLLPAYGMAMSKAELMQYVTVGLIPFNGIKSILVCGITYALYKKVSVSIFKVEPMLDKPKQMKENLG | failed
9 | IGPSSSHTMGPMTAANVFRDHVDQLVSQTPDDLNYRVYCVLKGSLAFTGRGHATDRAVALGLHGHSPVSLAGEDVNALTAKLWATDTLQLTSGREIGFNPEDDIVFDKSDPLPQHPNGMIFYLLDEEGKKILSETFFSIGGGFICTLAEINQ | not failed
10 | MTIVGLKKTYLGLIDKKTGKIIAGPEGLTTDGLYMSNPKDLGTASANITNIAAAGTQKFGDNGLVDVVSSKSFPQVAAVWNNLPFDIKAKIKGEVSDKKGGYVQSQDLPQVALIIESELIDRSHSIFYAFGNGHMTETALNIQTDNAAQNRVEDALTYQSLAFEAWNNQGMKTFNSADSGFDKTAMLKEVMGGYAASGLGVLEHHHHHH | failed
11 | MSLSNVFYRSSKPYPVAVRGEGVFLYDDAGRRYLDGSSGALVANIGHGRAEVGERMAAQAARLPFVHGSQFSSDVLEEYAGRLARFVGLPTFRFWAVSGGSEATESAVKLARQYHVERGEPGRFKVITRVPSYHGASLGSLAASGMGARRELYTPLMRPEAWPKLPKPDPARNGAEDAEGLRALLEREGPETVAAFMAEPVVGASDAALAPAPGYYERVRDICDEAGIIFIADEVMSGMGRCGSPLALSRWSGVTPDIAVLGKGLAAGYAPLAGLLAAPQVYETVMGGSGAFMHGFTYAGHPVSVAAGLSVLDIVEREDLTGAAKERGAQLLAGLQALQARFPQMMQVRGTGLLLGVVLGDLATGQAFETPGIASRIGAAALKRGLITYPGSGAEPNGRGDHLLLGPPLSITAAEVDGLLALLAGALEDVLGEGHHHHHH | not failed
12 | MPKTLLIPGLDGSPAAHWQQWWALRDPDALLLDLSDVSRPVPAVWEIEVAGAILQHPGAILVGHSLGAILIARLLAKWPHLKVGGAILVAPAEPRHSDRTESFGPIFEESLGVPAYVVSSRNDPWMSFTQAERLARAWRADVVDLGFAGHINVDSGFGPWPGGVVLRDELARRPVP | failed
13 | MKTRLMEAWKAHRSVMVQMPTGTGKTHLLASVVSEFVSSAGSGVWLIAHRRELVAQMEETLAKYGIRREDTPVRVMSVQWLSRHWNEAGDAPGLIVIDEAHHALAASYTEMWKRYPAAKKLGVTATPCRLNRRGFTELFEVLVTSWSIAEFIEKGVLSVFDYVSIRPGSEERRLIDGLEKRGADGDYQVKEMDAVLNRRPGIERLYRSVRQFASGKKGMVYAISIEHARRIAEYYSRRGVNAVAVDSKTPAMERKRMVEEFRHGKIEVLVNVDVFSEGFDCPDVEFVQLARPTLSLAKYLQQVGRGLRRSEGKEACMLIDNVGLYRIFGLPTQRWNWDAMFRGRMAGKGSLPGRMNCDASVTAFPVVERPAEAGGDLVVVMEHGRLLSSIREQALPDEKEQSPSCRLRAFVDKETGLWGLEKGDEMLPDASFKEVLSIKGRFAVGRLRNGCVRVLDDTGALVAEPGHCREVRFLKDDLLQVRHAGNSVSYVDLRNGRCYSVRPRVLRYGSIELLQANRTYYSRTRQVYANTCGLPSSSIVWMGFYVKMYDGRVPSRCRRMEDGGFCCEPQVCLLEGDEERAYYLSGRLPDQSIVVMDEEGRYYHVEKGHGKRYVACLEHHHHHH | failed
14 | SDDINQKVAEQLAQKAQSSSLGYDIVESLTVEVGPRLAGSEQDKVAVDWAIAKLQSLGFDRVYKEPVTVPVWRRGIAKASILSPFPQPLVVTALGGSIATPAQGLSATIVRFDTLQDLQNAEAGSLNDKIAFIDAKTERHRDGKGYGQTASGRSRGAVAAAEKGAVGIIIRSIGTDHDRMAHTGMMRYEEGVTAIPAAAISNPDADLINAMLKRDKEVVISLELGSERRGETTSYNVIAEVKGSTKADEIVLIGAHLDSWDEGTGAIDDGAGVAIVTAAAKHILDLPQKPERTIRVVLYAAEELGLLGGKTYAKEHEAELEKHYIAAESDFGAGPIYQIDWRVADTAHSPVINAMKVAEPLGVAAGNNKASGGPDVSMLPALGVPVASLRQDGSDYFDYHHTPNDTLDKINPEALAQNVAVYAQFAWVMANSKVELRPLPPKE | not failed
15 | MSLDKKLMPVPDGHPDVFDREWPLRVGDIDRAGRLRLDAACRHIQDIGQDQLREMGFEETHPLWIVRRTMVDLIRPIEFGDMLRCRRWCSGTSNRWCEMRVRVDGRKGGLIESEAFWIHVNRETEMPARIADDFLAGLHRTTSVDRLRWKGYLKPGSRDDASEIHEFPVRVTDIDLFDHMNNAVYWSVIEDYLASHAELLRGPLRVTIEHEAPVALGDKLEIISHVHPAGSTEIFGPGLVDRAVTTLTYVVGDEPKAVASLFNL | failed
16 | MNKFGAEKIFIEKQSGATITHRPIFQEALDFVRAQDIFIVEAIDRLGRNYDEIIDSVNYLKKKNVRLIITSLPIMAEAIGNPLLDKFIKDLIIQILAMIAEQERTESKRRQAQGIKIAKANGVYKGRPKLYSADTKDPQRRLVYKSIVQDLKNGVAISKIAKDYNITRQTIYRIKKEIHELEIN | failed
17 | TLRKARVKGLFLLSSGLQFSQSDHHPGGIPLAVIRHMSRQLKRNRTDTLTSFYEQMFSESEKSHGLDQAFLQTLEAGDPFYHWQNESLIAGLDYLANVQLLQGWPTVSVPITWIHGSDDTICPSPASGLFSPSKRLIIVEGAGHVPFYTQDSVVINAWEELLGN | failed
18 | NQLWTVEEQKKLEQLLIKYPPEEVESRRWQKIADELGNRTAKQVASQVQKYFIKLTKAGIPV | not failed
19 | MASGSTQVKYLGIYQKMKQQILDGEYKINEKIPSSPVLAEEFDVSVLTIKKALDLLVRDGYIIRRRGSGTVVQDWRQQEKARMIQTLTGTKAVYGSEVESKIIEFTIVGADEIIAEKLGISVGDFVYKIIRLRIIHSIPTIMEHTWMPISVIPGVEVSVLEESIYSHIQNKLGLQVGTSVVRVKGIRPDDKEKQFMNLTNQDFLMRVEQVAYLTDGRTFEYSYADHLPETFEFETVITAKSYKEA | not failed
20 | MSLYKRKSKLIGLLLPDMSNPFFTLIARGVEDVALAHGYQVLIGNSDNDIKKAQGYLATFVSHNCTGMISTAFNENIIENTLTDHHIPFVFIDRINNEHNGISTNHFKGGQLQAEVVRKGKGKNVLIVHENLLIDAFHQRVQGIKYILDQQRIDYKMLEATLLDNDKKFIDLIKELSIDSIICSNDLLAINVLGIVQRYHFKVPAEIQIIGYDNIPFSEMTYPQITTIDQSAYHLGEIAVSQLLGLNTDNLTNNHKQLALTVKHRGSTREGHHHHHH | not failed
